{
  "source": "the RNAGym collection of RNA variant scans (doi:10.1073/pnas.2313332121)",
  "parents": {"B1": {"name": "TPR 5TU (parent)", "chain": "GGAUCUUCUCGAUCUAACAAAAAAGACAAAUCUGCCACAAAGCUUGAGAGCAUCUUCGGAUGCAGAGGCGGCAGCCUUCGGUGGCGCGAUAGCGCCAACGUUCUCAACUAUGACACGCAAAACGCGUGCUCCGUUGAAUGGAGUUUAUCAUG"}},
  "note": "This sample holds only a part of the variants without activity.",
  "data": [
    {"variants_of": "B1", "assay": "polymerase ribozyme fitness, log enrichment relative to wild type (log ratio); higher = more active; in vitro selection for triplet polymerase activity", "outline": "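For each subunit of a heterodimeric triplet polymerase ribozyme, a mutant library was built by PCR and transcribed, then taken through a single in vitro selection round in triplicate. Selection involved annealing to a biotinylated primer, the partner subunit and triplets, incubation frozen at −7 °C, gel excision of extended constructs, capture on streptavidin beads and RT-PCR. Genotypes were retained after Illumina sequencing of inputs and outputs only with ≥10 input reads and ≥1 read in each output. Fitness is defined as the logarithm of a genotype's enrichment relative to wild-type enrichment, using inverse-variance-weighted averages across replicates, with the logarithm taken to base 2.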", "values": [
      {"variant": "A24U A30C C38U U45A G92U", "polymerase ribozyme fitness (log ratio)": "≤ -4.2"},
      {"variant": "G71C G86U A91C G133A", "polymerase ribozyme fitness (log ratio)": "≤ -4.2"},
      {"variant": "A21C U53A C69U C125U", "polymerase ribozyme fitness (log ratio)": -3.94},
      {"variant": "A21G G25C G34A G71U G100C A107U U109C A121U A150U", "polymerase ribozyme fitness (log ratio)": "≤ -4.2"},
      {"variant": "G62A G84A", "polymerase ribozyme fitness (log ratio)": -2.31},
      {"variant": "A29U U61A G67A C96U", "polymerase ribozyme fitness (log ratio)": "≤ -4.2"},
      {"variant": "C79G A122U", "polymerase ribozyme fitness (log ratio)": -3.58},
      {"variant": "A89C G92U C96A A106G A107U U139A", "polymerase ribozyme fitness (log ratio)": "≤ -4.2"},
      {"variant": "A20U A23C C72U G88C A91G C99U G140U", "polymerase ribozyme fitness (log ratio)": "≤ -4.2"},
      {"variant": "G58A A98G", "polymerase ribozyme fitness (log ratio)": 0.621},
      {"variant": "C123G G133U", "polymerase ribozyme fitness (log ratio)": -3.68},
      {"variant": "A29U A142C", "polymerase ribozyme fitness (log ratio)": -4.15},
      {"variant": "C57G G59C", "polymerase ribozyme fitness (log ratio)": -0.566},
      {"variant": "C8G A24C G65U C87A C95U C105G", "polymerase ribozyme fitness (log ratio)": "≤ -4.2"},
      {"variant": "A22G A47C U55A U61A G92C A142U", "polymerase ribozyme fitness (log ratio)": "≤ -4.2"},
      {"variant": "C105A A150C", "polymerase ribozyme fitness (log ratio)": -3.93},
      {"variant": "A73G A137C U145G", "polymerase ribozyme fitness (log ratio)": -3.74},
      {"variant": "C35G G83C", "polymerase ribozyme fitness (log ratio)": -4.19},
      {"variant": "C27A C85U", "polymerase ribozyme fitness (log ratio)": -3.43},
      {"variant": "U4G C57G", "polymerase ribozyme fitness (log ratio)": -0.334},
      {"variant": "C14G U55C C57A A66G G81A C85U", "polymerase ribozyme fitness (log ratio)": "≤ -4.2"},
      {"variant": "U4C C10G A17U A22G C36U U78A G92A C118U", "polymerase ribozyme fitness (log ratio)": "≤ -4.2"},
      {"variant": "A21C A22U U53A C85A G124A", "polymerase ribozyme fitness (log ratio)": -2.42},
      {"variant": "A47U G48U U55A U82G U134C", "polymerase ribozyme fitness (log ratio)": -3.1},
      {"variant": "C27U U101C", "polymerase ribozyme fitness (log ratio)": -0.938},
      {"variant": "C36U U55A C93U U144G", "polymerase ribozyme fitness (log ratio)": -1.07},
      {"variant": "C51U A150G", "polymerase ribozyme fitness (log ratio)": -1.14},
      {"variant": "A40U A91G C116U A121U", "polymerase ribozyme fitness (log ratio)": -2.66},
      {"variant": "A21U U135C", "polymerase ribozyme fitness (log ratio)": -1.61},
      {"variant": "U4A U13C C36U C96G", "polymerase ribozyme fitness (log ratio)": -2.21},
      {"variant": "C51U A89U G92C C129U", "polymerase ribozyme fitness (log ratio)": -2.18},
      {"variant": "C18G A21G G48U U82A G100A G136A", "polymerase ribozyme fitness (log ratio)": "≤ -4.2"},
      {"variant": "C35U C114A", "polymerase ribozyme fitness (log ratio)": -3.87},
      {"variant": "C10U C93U G117A A137C", "polymerase ribozyme fitness (log ratio)": "≤ -4.2"},
      {"variant": "C27G G84A", "polymerase ribozyme fitness (log ratio)": -3.69},
      {"variant": "U53A U78C U134G", "polymerase ribozyme fitness (log ratio)": -2.35},
      {"variant": "A17C A19C U55A G94A", "polymerase ribozyme fitness (log ratio)": 1.05},
      {"variant": "U6A C108U U134C", "polymerase ribozyme fitness (log ratio)": -3.33},
      {"variant": "A41C C43U A97G C108U G140U", "polymerase ribozyme fitness (log ratio)": "≤ -4.2"},
      {"variant": "G59U G86A", "polymerase ribozyme fitness (log ratio)": -1.19},
      {"variant": "G50C A60C A98U", "polymerase ribozyme fitness (log ratio)": -3.01},
      {"variant": "A3G A22G A24C A49U C76A C131G", "polymerase ribozyme fitness (log ratio)": "≤ -4.2"},
      {"variant": "A17U A20G A40C G126U", "polymerase ribozyme fitness (log ratio)": -0.583},
      {"variant": "C10G A17U C54G C93U A106C C125A", "polymerase ribozyme fitness (log ratio)": "≤ -4.2"},
      {"variant": "U9A A20U C36A A52C A113U G124C", "polymerase ribozyme fitness (log ratio)": "≤ -4.2"},
      {"variant": "U4A U31G A37C G86C C123G", "polymerase ribozyme fitness (log ratio)": "≤ -4.2"},
      {"variant": "A26C C131U", "polymerase ribozyme fitness (log ratio)": -0.797},
      {"variant": "C27U A47U U53A", "polymerase ribozyme fitness (log ratio)": -2.28},
      {"variant": "G25U A98U", "polymerase ribozyme fitness (log ratio)": -3.03},
      {"variant": "G11A G86U C93G", "polymerase ribozyme fitness (log ratio)": -1.46},
      {"variant": "U45A G68C U82G G83C G94A C118U", "polymerase ribozyme fitness (log ratio)": "≤ -4.2"},
      {"variant": "G11C", "polymerase ribozyme fitness (log ratio)": -1.36},
      {"variant": "A52C U102A", "polymerase ribozyme fitness (log ratio)": -1.68},
      {"variant": "G81C C93G A113C C116U G117A C129A", "polymerase ribozyme fitness (log ratio)": "≤ -4.2"},
      {"variant": "C43U C51U U53G A73G C96G G126U", "polymerase ribozyme fitness (log ratio)": "≤ -4.2"},
      {"variant": "C85U G94U", "polymerase ribozyme fitness (log ratio)": 0.0431},
      {"variant": "G50C U53A C57G G70A G100C A120G", "polymerase ribozyme fitness (log ratio)": "≤ -4.2"},
      {"variant": "U4C A49U C93A", "polymerase ribozyme fitness (log ratio)": -3.07},
      {"variant": "C57G C93U", "polymerase ribozyme fitness (log ratio)": -1.72},
      {"variant": "G11C A26G C93A A120U G126C", "polymerase ribozyme fitness (log ratio)": -3.54},
      {"variant": "A3U", "polymerase ribozyme fitness (log ratio)": -0.0169},
      {"variant": "G62A C93U C118U G143U", "polymerase ribozyme fitness (log ratio)": -3.81},
      {"variant": "C38G C96G", "polymerase ribozyme fitness (log ratio)": -0.167},
      {"variant": "U9C A52C G67A G74U G86U C93U A115G", "polymerase ribozyme fitness (log ratio)": "≤ -4.2"},
      {"variant": "C95U A122C U130G U139A", "polymerase ribozyme fitness (log ratio)": -4.01},
      {"variant": "U55A U61G", "polymerase ribozyme fitness (log ratio)": -3.71},
      {"variant": "A17C A120G", "polymerase ribozyme fitness (log ratio)": 0.31},
      {"variant": "G25U G86A", "polymerase ribozyme fitness (log ratio)": -3.14},
      {"variant": "U53A G133U", "polymerase ribozyme fitness (log ratio)": -3.53},
      {"variant": "A60G G83C", "polymerase ribozyme fitness (log ratio)": -0.826},
      {"variant": "A60G C93A", "polymerase ribozyme fitness (log ratio)": -2.81},
      {"variant": "G92C C108G G112C C123A G136C A137C A142G", "polymerase ribozyme fitness (log ratio)": "≤ -4.2"},
      {"variant": "C79G C87G C114G", "polymerase ribozyme fitness (log ratio)": "≤ -4.2"},
      {"variant": "U53A A122G", "polymerase ribozyme fitness (log ratio)": -0.748},
      {"variant": "C99G C132U", "polymerase ribozyme fitness (log ratio)": -1.96},
      {"variant": "C79A G88A G133U G140A", "polymerase ribozyme fitness (log ratio)": "≤ -4.2"},
      {"variant": "G46A G59A", "polymerase ribozyme fitness (log ratio)": 0.222},
      {"variant": "G48A C79U", "polymerase ribozyme fitness (log ratio)": -3.91},
      {"variant": "C87A A89C G124C U148A", "polymerase ribozyme fitness (log ratio)": "≤ -4.2"},
      {"variant": "A3U A20C C54U G86C C125U", "polymerase ribozyme fitness (log ratio)": -4.19},
      {"variant": "A20C A40C C103U U145C", "polymerase ribozyme fitness (log ratio)": -0.185},
      {"variant": "A41C U53A", "polymerase ribozyme fitness (log ratio)": -1.22}
    ]}
  ]
}
